The results in this text go back to patent US20190225698A1 (JIANGSU HENGRUI MEDICINE, published 2019).

Changes are numbered by the printed parent chain.

The assay has as its target T1, human CD27-HisFc fusion protein (human, UniProt P26842 20-192).
T1 construct: also called CD27-HisFc (Sino Biological #10039-H03H); not shown: His tag and Fc
T1 sequence (looked up): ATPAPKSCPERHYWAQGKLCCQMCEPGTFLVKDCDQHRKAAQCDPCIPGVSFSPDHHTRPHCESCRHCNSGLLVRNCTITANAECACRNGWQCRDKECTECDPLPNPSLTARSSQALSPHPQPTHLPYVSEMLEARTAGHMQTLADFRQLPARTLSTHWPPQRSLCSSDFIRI
Nature of the assay: BLI (Octet RED96), CD27-HisFc captured on AHC sensor, Fab in solution. As to the method:
A histidine tag was added to each unique sequence of the antibody Fab fragment at the C-terminal, and the antibody Fab fragment was overexpressed in an E. coli expression system, and then purified by using Ni-NTA affinity resin. […] The collected data was processed by Data Acquisition 7.1 software and fitted to a 1:1 combined Langmuir model curve. The mAb076 and mAb077 antibodies were the two antibodies with optimal binding and were selected for further analysis and development experiments.
On the technique in general: Biolayer interferometry detects binding as a change in optical thickness at a sensor tip.

B1: mAb076 antibody Fab fragment with C-terminal histidine tag (Fab, V domains shown)
VH: EVQLVESGGGLVQPGGSLRLSCAASGFTFSDYGIHWVRQAPGKGLEWIGWINPNRGSTNYAQKFQGRVTISRDNSKNTLYLQLNSLRAEDTAVYYCARDYGYTWYFDVWGQGTLVTVSS
VL: DIQLTQSPSSLSASVGDRVTITCRASQDISSVLAWYQQKPGKAPKLLIYAASSLQSGVPSRFSGSGSGTDFTLTISSLQPEDFATYYCQQRDAWPLTFGQGTKVEIK
Take B1: the binding result is recorded as “binds”.

B2: mAb077 antibody Fab fragment with C-terminal histidine tag (Fab, V domains shown)
VH: B1 VH with D31G, N59K, Y100P
VL: B1 VL with V32D, S53T, L96P
In the case of B2, the binding result is on record as “binds”.
